Laboratory results taken from patent US20190330349A1.

Biological target: human VISTA (V-domain Ig Suppressor of T cell Activation) (human) (UniProt Q9H7M9)
Experiment: Table 1 column 'Kd, M'; method not stated

B1: VSTB63 (antibody, from a related filing, V domains shown)
VH: QVQLQESGPGLVKPSETLSLTCAVSGFSITSDFAWNWIRQPPGKGLEWIGYITYSGFTNYNPSLESRVTISVDTSKNQFSLKLSSVTAADTAVYYCARQEYGNYVWYFDVWGQGTLVTVSS
VL: DIVMTQTPLSLSVTPGQPASISCRASESVEYYGTSLLQWYLQKPGQPPQLLIYAASNVESGVPDRFSGSGSGTDFTLKISRVEAEDVGVYYCQQSRKVPWTFGQGTKLEIK
Kd: 0.83 nM

B2: VSTB54 (antibody, from a related filing, V domains shown)
VH: QVQLVQSGAEVKKPGASVKVSCKASGYNIKDTYMHWVRQAPGQGLEWMGRIDPTHGYVIYDPKFQGRVTMTRDTSTSTVYMELSSLRSEDTAVYYCARDRFDPYWFLDVWGQGTLVTVSS
VL: DIVMTQTPLSLSVTPGQPASISCRASESVEYYGTSLMQWYLQKPGQSPQLLIYDAFNVESGVPDRFSGSGSGTDFTLKISRVEAEDVGVYYCQQSRKVPWTFGQGTKLEIK
Kd: 0.0253 nM
